Data taken from paper PMC11286949, “Structural basis of tRNA recognition by the widespread OB fold”.

Assays:
Assay in all cases: ITC; ITC (Arc1p): 25 mM Tris-HCl pH 7.4, 150 mM NaCl, 2 mM MgCl2, 25 °C. FP and competition FP: 25 mM Tris-HCl pH 7.5, 150 mM NaCl (Arc1p) or 50 mM NaCl (Trbp111), 2 mM MgCl2, room temperature
Conditions in all cases: protein: recombinant; tags: His-MBP removed; tRNA fold
Arc1p dN R274A = biological target: T1, Arc1p dN R274A (Saccharomyces cerevisiae, UniProt P46672 132-376, R274A;del1-131)
T1 sequence: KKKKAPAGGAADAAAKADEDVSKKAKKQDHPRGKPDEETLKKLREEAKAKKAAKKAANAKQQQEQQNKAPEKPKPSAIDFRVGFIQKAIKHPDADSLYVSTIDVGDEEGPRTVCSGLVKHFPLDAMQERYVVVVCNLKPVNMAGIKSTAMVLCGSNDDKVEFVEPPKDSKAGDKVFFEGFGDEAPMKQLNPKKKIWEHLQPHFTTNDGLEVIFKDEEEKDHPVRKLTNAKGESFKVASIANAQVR

[1] = biological target: T2, Arc1p dN V271A/M273A/M281A (Saccharomyces cerevisiae, UniProt P46672 132-376, V271A;M273A;M281A;del1-131)
T2 sequence: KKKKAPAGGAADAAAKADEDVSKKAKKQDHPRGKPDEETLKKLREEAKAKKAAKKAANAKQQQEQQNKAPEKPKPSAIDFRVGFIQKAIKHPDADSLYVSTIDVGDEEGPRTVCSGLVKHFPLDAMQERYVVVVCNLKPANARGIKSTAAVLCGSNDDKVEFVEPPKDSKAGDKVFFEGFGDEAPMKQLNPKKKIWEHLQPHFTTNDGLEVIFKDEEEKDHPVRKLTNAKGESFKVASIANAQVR

Arc1p dN M281A = biological target: T3, Arc1p dN M281A (Saccharomyces cerevisiae, UniProt P46672 132-376, M281A;del1-131)
T3 sequence: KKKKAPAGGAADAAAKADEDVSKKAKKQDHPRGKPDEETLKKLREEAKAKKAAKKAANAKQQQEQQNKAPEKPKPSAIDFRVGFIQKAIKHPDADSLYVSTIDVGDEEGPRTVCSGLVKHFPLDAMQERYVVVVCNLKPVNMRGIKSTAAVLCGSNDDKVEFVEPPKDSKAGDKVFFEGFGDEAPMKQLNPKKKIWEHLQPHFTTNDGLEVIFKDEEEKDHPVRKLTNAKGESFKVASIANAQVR

Arc1p dNdM1 = biological target: T4, Arc1p dNdM1 (Saccharomyces cerevisiae, UniProt P46672 166-376)
T4 sequence: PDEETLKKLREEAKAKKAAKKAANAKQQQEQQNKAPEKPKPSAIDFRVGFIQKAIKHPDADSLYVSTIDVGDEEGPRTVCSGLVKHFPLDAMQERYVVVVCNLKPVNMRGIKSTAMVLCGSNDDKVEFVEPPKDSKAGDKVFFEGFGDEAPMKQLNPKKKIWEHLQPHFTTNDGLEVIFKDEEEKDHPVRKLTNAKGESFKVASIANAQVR

B1: tRNAIle WT (structured_RNA)
RNA: AGGCUUGUAGCUCAGGUGGUUAGAGCGCACCCCUGAUAAGGGUGAGGUCGGUGGUUCAAGUCCACUCAGGCCUACCA
Kd (Arc1p dN R274A): 2980 ± 674 nM
Kd [1]: 544 ± 215 nM
Kd (Arc1p dN M281A): 384 ± 48 nM
Kd (Arc1p dNdM1): 2550 ± 456 nM
